Experiments:
human FGFR2b [1] = biological target: T1, human FGFR2b (Homo sapiens, UniProt P21802); assay: FACS binding to native FGFR2b on Expi293 cells, human FGFR2b (Example 10); details: Expi293 cells overexpressing human FGFR2b
Description: (§1) To evaluate the binding activity of anti-FGFR2b antibodies to native FGFR2b on living cells, Expi293 cells were engineered to overexpress human FGFR2b, cyno FGFR2b, mouse FGFR2b, or human FGFR2c. Expi293 cells expressing antigens were seeded in 96-well plates, and were incubated with serially diluted anti-FGFR2b antibodies. Goat anti-human IgG [Alexa Fluor® 647] […] The change of mean fluorescent intensity (MFI) of humanized candidates BGAh9239 and BGAh9179 was measured by flow cytometry. EC50 values for dose-dependent binding to native human FGFR2b, cyno FGFR2b, mouse FGFR2b, and human FGFR2c were determined using sigmoidal dose-response curves of nonlinear fit from GraphPad Prism™.

[2] = biological target: T2, soluble human FGFR2b proteins (Homo sapiens, UniProt P21802); assay: SPR binding kinetics (Biacore 8K, Example 5); details: room temperature
T2 construct: soluble human FGFR2b proteins (his tag, in-house generated); His tag; made in house
T2 sequence (P21802 22-378 isoform P21802-3 limits assumed): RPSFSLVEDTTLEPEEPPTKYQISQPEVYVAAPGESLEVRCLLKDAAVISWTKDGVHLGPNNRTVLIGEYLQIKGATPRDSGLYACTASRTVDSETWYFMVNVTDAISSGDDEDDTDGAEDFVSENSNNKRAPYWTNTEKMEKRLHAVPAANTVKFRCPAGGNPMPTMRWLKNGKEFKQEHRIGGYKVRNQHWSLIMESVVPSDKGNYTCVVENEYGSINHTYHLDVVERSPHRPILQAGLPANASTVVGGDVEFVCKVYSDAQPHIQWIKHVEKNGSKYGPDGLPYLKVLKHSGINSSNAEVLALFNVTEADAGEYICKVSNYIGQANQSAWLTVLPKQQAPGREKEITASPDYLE
Description: The binding affinity and kinetics of purified anti-FGFR2b antibodies were determined by surface plasmon resonance (Biacore 8K, GE Life Sciences) at room temperature. Briefly, mouse anti-human IgG Fc antibody was immobilized via amine coupling onto a activated CM5 biosensor chip (Cat. No. BR100530, GE Life Sciences). Purified monoclonal antibody candidates were flowed over the chip surface and captured by anti-human IgG antibody. Then a serial dilution of soluble human FGFR2b proteins (his tag, in-house generated) were injected over the antibodies captured surface and changes in surface plasmon resonance signals were analyzed to calculate the association rates (kon) and dissociation rates (koff) by using the one-to-one Langmuir binding model (BIA Evaluation Software, GE Life Sciences). The equilibrium dissociation constant (KD) was calculated as the ratio koff/kon.

human FGFR2b [3] = biological target: T1, human FGFR2b; assay: ELISA binding to recombinant human FGFR2b (Example 11)
[4] = tested on: phosphorylated FGFR in SNU-16 cells; assay: Inhibition of FGFR2 signaling in SNU-16 cells (Western blot of pFGFR); format: cell-based; details: antibody 10 μg/ml, FGF10 10 ng/ml, 2 hours
Description: Inhibition of the FGFR2 signaling pathway by the humanized antibodies was investigated. SNU-16 cells were grown in RPMI-1640 medium with 10% FBS, collected and washed twice with free medium and then seeded in 12-well plates at 1.5E6 cells/well in serum-free RPMI-1640. The plates were incubated at 37° C., 5% CO2, and 95% humidity in an incubator overnight. Anti-FGFR2b antibodies at a concentration of 10 μg/ml were added to the assay plates. Recombinant human FGF7 or FGF10 protein (10 ng/ml) in the presence of heparin (5 μg/ml) was added to the assay plates. The plates were incubated in a 37° C., 5% CO2, 95% humidity incubator for 2 hours. Following 2 hours incubation, cells were collected and washed twice with cold PBS. NP40 lysis buffer containing 1×PMSF and 1× Protease plus phosphatase inhibitors were added to the cell pellets. The mixture was pipetted up and down to suspend the pellet. The mixture was inverted gently and each placed for 10 minutes on ice, for a total of 30 minutes. The mixture was centrifuged at 12000× rpm for 10 minutes to pellet the cell debris. The supernatant was transferred to a new tube to quantify total protein concentration by BCA Kit. The protein samples were then split and stored at −80° C. for further Western blotting to detect the expression of pFGFR and total FGFR2.
Western blotting procedure: The completely thawed protein samples were mixed with 4×SDS loading buffer and were heated for 10 min at 37° C. Then the mixtures were centrifuged at ˜3500×rpm for 5 min. Equal amounts of proteins were loaded into an SDS-PAGE gel, whereafter proteins were transferred to PVDF membranes using iBlot. The membranes were then subjected to Western blotting analysis, focusing on phosphorylated FGFR and total FGFR2.

Human FGFR2c [5] = biological target: T3, Human FGFR2c (Homo sapiens, UniProt P21802); assay: FACS binding on Expi293 cells, human FGFR2c (Example 10)
T3 sequence (P21802 22-821): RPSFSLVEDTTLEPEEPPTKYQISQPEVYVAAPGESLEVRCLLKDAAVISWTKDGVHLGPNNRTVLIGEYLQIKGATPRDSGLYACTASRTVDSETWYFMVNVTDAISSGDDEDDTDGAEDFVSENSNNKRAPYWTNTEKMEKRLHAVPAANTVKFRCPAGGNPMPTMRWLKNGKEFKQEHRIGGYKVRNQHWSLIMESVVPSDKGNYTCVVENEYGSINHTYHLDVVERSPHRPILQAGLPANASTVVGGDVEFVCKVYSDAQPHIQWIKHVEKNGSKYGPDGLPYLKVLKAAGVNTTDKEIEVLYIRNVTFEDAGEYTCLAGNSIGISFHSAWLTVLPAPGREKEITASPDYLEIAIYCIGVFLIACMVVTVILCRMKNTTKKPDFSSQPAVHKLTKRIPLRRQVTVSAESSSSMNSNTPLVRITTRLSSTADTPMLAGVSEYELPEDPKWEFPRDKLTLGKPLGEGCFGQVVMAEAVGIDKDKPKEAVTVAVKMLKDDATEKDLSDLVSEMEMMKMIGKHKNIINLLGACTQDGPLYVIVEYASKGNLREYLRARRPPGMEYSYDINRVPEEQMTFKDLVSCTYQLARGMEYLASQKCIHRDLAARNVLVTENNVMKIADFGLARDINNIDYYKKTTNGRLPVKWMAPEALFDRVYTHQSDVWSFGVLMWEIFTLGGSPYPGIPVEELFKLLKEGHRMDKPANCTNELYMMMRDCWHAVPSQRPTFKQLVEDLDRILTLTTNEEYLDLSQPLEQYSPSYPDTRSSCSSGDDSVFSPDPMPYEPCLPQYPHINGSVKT
Description: as §1

Cyno FGFR2b [6] = assay: SPR affinity determination, cyno FGFR2b (Example 9); format: binding
Description: (§2) For affinity determination, antibodies were captured by anti-human Fc antibodies, and used in the affinity assay based on surface plasmon resonance (SPR) technology. SPR signals were analyzed to calculate the association rates (ka) and dissociation rates (kd) by using the one-to-one Langmuir binding model (BIA Evaluation Software, GE Life Sciences). The equilibrium dissociation constant (KD) was calculated as the ratio of kd/ka. Rmax represents the maximal feasible SPR signal generated by an interaction between a ligand-analyte pair and is represented in response units (RU). BGAh9239 and BGA9179 show similar binding profiles to human FGFR2b and cyno FGFR2b, and are similar to their parental antibodies BGAm1823 and BGAm1371, respectively.

human FGFR2b [7] = biological target: T1, human FGFR2b; assay: SPR affinity determination, human FGFR2b (Example 9); format: binding
Description: as §2

Human FGFR2c [8] = biological target: T3, Human FGFR2c; assay: ELISA binding to recombinant human FGFR2c (Example 11)
Cyno FGFR2b [9] = assay: ELISA binding to recombinant cyno FGFR2b (Example 11)
Mouse FGFR2b = biological target: T4, Mouse FGFR2b (Mus musculus, UniProt P21803); assay: FACS binding on Expi293 cells, mouse FGFR2b (Example 10); details: Expi293 cells overexpressing mouse FGFR2b
T4 construct: expressed in transfected cells; host or cells: Expi293
T4 sequence (P21803 22-707 isoform P21803-2 limits assumed): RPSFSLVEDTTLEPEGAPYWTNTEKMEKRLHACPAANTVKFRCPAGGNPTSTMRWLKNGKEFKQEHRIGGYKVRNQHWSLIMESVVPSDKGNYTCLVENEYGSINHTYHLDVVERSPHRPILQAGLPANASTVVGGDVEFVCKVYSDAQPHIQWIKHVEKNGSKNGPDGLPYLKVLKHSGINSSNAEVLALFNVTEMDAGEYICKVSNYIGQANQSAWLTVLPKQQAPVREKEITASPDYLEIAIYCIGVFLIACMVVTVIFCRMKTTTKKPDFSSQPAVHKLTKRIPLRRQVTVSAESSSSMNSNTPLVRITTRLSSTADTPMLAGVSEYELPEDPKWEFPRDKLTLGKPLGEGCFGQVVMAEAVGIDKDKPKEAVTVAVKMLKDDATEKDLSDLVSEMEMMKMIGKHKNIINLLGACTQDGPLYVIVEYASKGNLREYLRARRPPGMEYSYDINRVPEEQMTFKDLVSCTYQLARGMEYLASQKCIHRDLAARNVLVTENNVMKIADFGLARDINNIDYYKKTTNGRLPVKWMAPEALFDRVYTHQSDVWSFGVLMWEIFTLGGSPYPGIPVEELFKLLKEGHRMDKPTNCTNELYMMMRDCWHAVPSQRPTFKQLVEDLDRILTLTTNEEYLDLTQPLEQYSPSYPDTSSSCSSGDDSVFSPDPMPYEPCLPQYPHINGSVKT
Description: as §1

T1 sequence (P21802 22-822 isoform P21802-3 limits assumed): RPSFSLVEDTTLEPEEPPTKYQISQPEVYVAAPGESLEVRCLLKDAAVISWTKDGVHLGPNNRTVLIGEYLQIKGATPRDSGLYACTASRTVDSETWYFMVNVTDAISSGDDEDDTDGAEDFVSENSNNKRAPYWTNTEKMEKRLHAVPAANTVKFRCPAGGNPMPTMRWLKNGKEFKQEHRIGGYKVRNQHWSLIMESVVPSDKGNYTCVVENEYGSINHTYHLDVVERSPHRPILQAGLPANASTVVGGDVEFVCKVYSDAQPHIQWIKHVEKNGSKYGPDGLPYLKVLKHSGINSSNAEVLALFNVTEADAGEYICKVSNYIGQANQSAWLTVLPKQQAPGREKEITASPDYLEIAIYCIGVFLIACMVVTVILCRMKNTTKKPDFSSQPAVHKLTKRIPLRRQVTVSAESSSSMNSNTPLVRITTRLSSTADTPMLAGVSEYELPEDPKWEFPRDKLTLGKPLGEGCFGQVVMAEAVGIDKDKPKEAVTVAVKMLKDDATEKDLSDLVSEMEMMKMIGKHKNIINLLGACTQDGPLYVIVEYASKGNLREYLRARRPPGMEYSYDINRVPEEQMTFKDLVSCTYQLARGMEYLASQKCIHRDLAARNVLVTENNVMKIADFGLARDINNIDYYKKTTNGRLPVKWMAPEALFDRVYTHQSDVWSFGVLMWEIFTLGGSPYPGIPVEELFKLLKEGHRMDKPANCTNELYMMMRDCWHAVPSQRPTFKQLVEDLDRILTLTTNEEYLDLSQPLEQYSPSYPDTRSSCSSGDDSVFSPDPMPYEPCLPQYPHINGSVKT

B1: BGAh9179: humanized anti-FGFR2b IgG1 antibody from murine BGAm1371; VH SEQ ID NO: 21, VL SEQ ID NO: 22 (antibody, V domains shown)
VH: QVQLVQSGAEVKKPGASVKVSCKASGYTITDTYIHWVRQAPGQGLEWMGRIDPAEGNTMFASEFQGRVTMTADTSTSTVYMELSSLRSEDTAVYYCARSKIHYDYDEGFAYWGQGTLVTVSS
VL: DIVLTQSPDSLAVSLGERATINCRASESVDDYGYSFLHWYQQKPGQPPKLLIYRASNLESGVPDRFSGSGSGTDFTLTISSLQAEDVAVYYCQQSNQNPRTFGGGTKVEIK
modifications: Synthetic: VH AA; Synthetic: VL AA
EC50 (human FGFR2b [1]): 3.29 nM
Emax (MFI) (human FGFR2b [1]): 2977577 MFI
ka ([2]; antibody captured): 80600 M⁻¹ s⁻¹
kd ([2]; antibody captured): 0.00112 s⁻¹
Kd ([2]; koff/kon): 13.9 nM
EC50 (human FGFR2b [3]): 0.0518 nM
Emax (A450) (human FGFR2b [3]): 2.993 A450
FGF10-induced FGFR phosphorylation [4]: little or no down-regulation
Emax (MFI) (Human FGFR2c [5]; Expi293 cells overexpressing human FGFR2c): 21749 MFI
binding to native human FGFR2c (Human FGFR2c [5]; living Expi293 cells, in words): no detectable binding
ka (Cyno FGFR2b [6]): 8.37E+04 M^−1S^−1
kd (Cyno FGFR2b [6]): 1.72E−03 S^−1
Rmax (human FGFR2b [7]): 38.3 RU
ka (human FGFR2b [7]): 8.16E+04 M^−1S^−1
kd (human FGFR2b [7]): 1.78E−03 S^−1
Kd (human FGFR2b [7]; kd/ka): 21.8 nM
Emax (A450) (Human FGFR2c [8]; human FGFR2c): 0.086 A450
binding to human FGFR2c (Human FGFR2c [8]; in words): no detectable binding
Emax (A450) (Cyno FGFR2b [9]): 2.953 A450
EC50 (Mouse FGFR2b): 4.25 nM
Emax (MFI) (Mouse FGFR2b): 5145011 MFI

Source: patent US20250222125A1, “Anti-FGFR2b Antibodies, Conjugates and Methods of Use” (BeiGene, Ltd., priority 2024, published 2025)
